{
  "source": "patent US20250163117A1",
  "about": "(CURE GENETICS, published 2025)",
  "binders": {"B1": {"name": "CP-trIL-2 012 (ligand)", "chain": "PTSSSTKKTQLQLEHLLLDLQMILNGINNYKNPLRPRDLISNINVIVLELKGSETTELKHLQSLEEELKDLEEVLNLAQSKNFHTIVEFLNRWITFSQSIISTLT", "notes": "H1-H3-H2-H4; loops 1 and 2 removed; de-Ala1, C58S, C125S, P65D"}},
  "test_in_all_cases": "cell-based or functional assay",
  "key": {"[1]": {"biological_target": "T1, human intermediate-affinity IL-2 receptor IL-2Rβγ on cells (human, UniProt P14784 27-551; P31785 23-369)", "T1 sequence (looked up) 1": "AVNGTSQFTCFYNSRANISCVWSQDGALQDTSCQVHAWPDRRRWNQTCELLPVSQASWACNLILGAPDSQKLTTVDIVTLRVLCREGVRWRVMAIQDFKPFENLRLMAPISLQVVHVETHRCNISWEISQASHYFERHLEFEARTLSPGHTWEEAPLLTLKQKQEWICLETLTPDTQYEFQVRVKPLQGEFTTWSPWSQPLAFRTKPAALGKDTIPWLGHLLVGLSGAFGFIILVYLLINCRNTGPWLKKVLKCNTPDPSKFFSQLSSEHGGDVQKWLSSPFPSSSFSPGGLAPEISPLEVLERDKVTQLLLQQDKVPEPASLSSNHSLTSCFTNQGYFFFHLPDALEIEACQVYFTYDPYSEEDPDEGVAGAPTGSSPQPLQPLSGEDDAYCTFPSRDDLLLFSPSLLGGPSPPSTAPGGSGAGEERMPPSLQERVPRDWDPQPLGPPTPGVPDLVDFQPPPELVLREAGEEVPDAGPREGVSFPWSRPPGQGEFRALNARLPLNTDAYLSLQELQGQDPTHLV", "T1 sequence (looked up) 2": "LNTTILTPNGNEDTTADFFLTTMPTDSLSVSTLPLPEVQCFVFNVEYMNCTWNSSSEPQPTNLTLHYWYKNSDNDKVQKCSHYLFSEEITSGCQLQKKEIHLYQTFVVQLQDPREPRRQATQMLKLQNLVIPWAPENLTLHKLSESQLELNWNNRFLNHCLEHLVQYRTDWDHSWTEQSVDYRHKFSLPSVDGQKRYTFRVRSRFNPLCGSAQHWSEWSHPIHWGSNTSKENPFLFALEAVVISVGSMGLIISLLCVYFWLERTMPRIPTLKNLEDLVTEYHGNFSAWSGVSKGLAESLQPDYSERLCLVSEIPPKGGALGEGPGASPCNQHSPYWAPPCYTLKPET"}, "[2]": {"biological_target": "T2, mouse high-affinity IL-2 receptor IL-2Rαβγ on cells (mouse, UniProt P01590 22-268; P16297 27-539; P34902 23-369)", "T2 sequence (looked up) 1": "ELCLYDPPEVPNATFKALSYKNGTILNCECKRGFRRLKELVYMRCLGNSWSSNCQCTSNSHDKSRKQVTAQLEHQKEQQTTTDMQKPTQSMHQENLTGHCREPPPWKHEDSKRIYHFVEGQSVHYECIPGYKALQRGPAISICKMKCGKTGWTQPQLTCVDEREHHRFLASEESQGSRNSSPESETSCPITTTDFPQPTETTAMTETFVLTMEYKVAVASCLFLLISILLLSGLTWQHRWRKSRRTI", "T2 sequence (looked up) 2": "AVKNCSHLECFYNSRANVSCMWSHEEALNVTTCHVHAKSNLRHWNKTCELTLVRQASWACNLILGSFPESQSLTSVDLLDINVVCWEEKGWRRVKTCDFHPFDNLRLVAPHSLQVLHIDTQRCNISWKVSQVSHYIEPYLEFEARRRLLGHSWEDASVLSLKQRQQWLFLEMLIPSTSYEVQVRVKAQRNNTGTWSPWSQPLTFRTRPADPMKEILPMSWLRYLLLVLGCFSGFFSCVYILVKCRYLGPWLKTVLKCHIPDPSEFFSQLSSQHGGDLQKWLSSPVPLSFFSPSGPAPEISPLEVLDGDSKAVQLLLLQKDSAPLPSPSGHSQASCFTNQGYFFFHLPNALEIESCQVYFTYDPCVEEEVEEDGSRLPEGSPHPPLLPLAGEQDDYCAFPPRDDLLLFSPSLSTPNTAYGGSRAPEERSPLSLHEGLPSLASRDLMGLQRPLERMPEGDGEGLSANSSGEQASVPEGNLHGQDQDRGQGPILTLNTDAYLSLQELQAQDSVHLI", "T2 sequence (looked up) 3": "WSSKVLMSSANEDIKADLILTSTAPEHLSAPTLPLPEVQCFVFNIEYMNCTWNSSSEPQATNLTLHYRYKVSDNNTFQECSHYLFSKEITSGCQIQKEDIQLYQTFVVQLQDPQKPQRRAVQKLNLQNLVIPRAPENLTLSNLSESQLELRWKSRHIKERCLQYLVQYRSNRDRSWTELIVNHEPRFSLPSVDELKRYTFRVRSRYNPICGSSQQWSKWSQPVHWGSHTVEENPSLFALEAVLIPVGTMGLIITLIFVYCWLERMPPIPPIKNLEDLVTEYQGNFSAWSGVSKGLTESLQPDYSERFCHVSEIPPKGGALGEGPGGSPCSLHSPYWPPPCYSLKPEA"}, "[3]": {"biological_target": "T3, mouse intermediate-affinity IL-2 receptor IL-2Rβγ on cells (mouse, UniProt P16297 27-539; P34902 23-369)", "T3 sequence (looked up) 1": "T2 sequence (looked up) 2", "T3 sequence (looked up) 2": "T2 sequence (looked up) 3"}, "[4]": {"biological_target": "T4, human high-affinity IL-2 receptor IL-2Rαβγ on cells (human, UniProt P01589 22-272; P14784 27-551; P31785 23-369)", "T4 sequence (looked up) 1": "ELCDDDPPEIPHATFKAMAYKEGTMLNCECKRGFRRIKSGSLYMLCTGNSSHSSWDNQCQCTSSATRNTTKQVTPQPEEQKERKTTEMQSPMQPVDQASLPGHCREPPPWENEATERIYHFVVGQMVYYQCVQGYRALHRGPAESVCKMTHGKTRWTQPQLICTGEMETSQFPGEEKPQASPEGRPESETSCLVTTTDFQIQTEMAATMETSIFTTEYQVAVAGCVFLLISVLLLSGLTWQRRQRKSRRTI", "T4 sequence (looked up) 2": "T1 sequence (looked up) 1", "T4 sequence (looked up) 3": "T1 sequence (looked up) 2"}, "[5]": {"biological_target": "T1, human intermediate-affinity IL-2 …", "remark": "listed apart in the source"}, "[6]": {"biological_target": "T4, human high-affinity IL-2 receptor …", "remark": "listed apart in the source"}, "[7]": {"biological_target": "T1, human intermediate-affinity IL-2 …", "remark": "listed apart in the source"}},
  "data": [
    {"binder": "B1", "values": [
      {"measurement": "EC50 (read off the curve): STAT5 phosphorylation in HH cells", "setting": "[1]", "result": "~6", "unit": "nM"},
      {"measurement": "% pSTAT5 in mouse splenocytes at Low IL-2v concentration (2.5 nM per paragraph 254); western blot, pSTAT5/STAT5 normalised to 001 High", "setting": "[2]", "result": 22.8, "unit": "%"},
      {"measurement": "% pSTAT5 in mouse splenocytes at High IL-2v concentration (25 nM per paragraph 254); western blot, pSTAT5/STAT5 normalised to 001 High", "setting": "[3]", "result": 126, "unit": "%"},
      {"measurement": "% pSTAT5 in human PBMC at Low IL-2v concentration (2.5 nM per paragraph 254); western blot, pSTAT5/STAT5 normalised to 001 High", "setting": "[4]", "result": 10.9, "unit": "%"},
      {"measurement": "% pSTAT5 in human PBMC at High IL-2v concentration (25 nM per paragraph 254); western blot, pSTAT5/STAT5 normalised to 001 High", "setting": "[5]", "result": 66.9, "unit": "%"},
      {"measurement": "EC50 of STAT5 activation, human Tregs (flow cytometry)", "setting": "[6]", "result": 7.91, "unit": "nM"},
      {"measurement": "EC50 of STAT5 activation, human CD8 T cells (flow cytometry)", "setting": "[7]", "result": 18.6, "unit": "nM"},
      {"measurement": "EC50 of STAT5 activation, human NK cells (flow cytometry)", "setting": "[7]", "result": 5.11, "unit": "nM"}
    ]}
  ]
}
